In paper PMC10440987, “SLG2 specifically regulates grain width through WOX11 ‐mediated cell expansion control in rice”:
Residue numbers refer to the chain shown, from its start.

How the values were obtained:
WOX11-MBP [1] = target: T1, WOX11-MBP (Oryza sativa (rice; cultivar of the …, UniProt Q0D3I7 1-262); test: EMSA; LightShift Chemiluminescent EMSA Kit (Thermo 20148), manufacturer's instructions; buffer, salt, pH and temperature not stated; details: protein: recombinant; tags: MBP; label: 5' biotin; blunt
T1 sequence: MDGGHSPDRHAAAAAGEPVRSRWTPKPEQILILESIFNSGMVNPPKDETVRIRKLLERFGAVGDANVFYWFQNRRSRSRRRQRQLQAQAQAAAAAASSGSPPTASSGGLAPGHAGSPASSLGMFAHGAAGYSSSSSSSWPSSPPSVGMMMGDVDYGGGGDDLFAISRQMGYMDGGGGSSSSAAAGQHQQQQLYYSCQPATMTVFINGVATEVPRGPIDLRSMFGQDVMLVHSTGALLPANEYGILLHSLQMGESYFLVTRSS

WOX11-MBP [2] = target: T1, WOX11-MBP; test: competition EMSA; unlabelled competitor against biotin hot probe N1; LightShift Chemiluminescent EMSA Kit (Thermo 20148), manufacturer's instructions; buffer, salt, pH and temperature not stated; details: protein: recombinant; tags: MBP; blunt

B1: pOsEXPB7 hot probe (dsDNA)
DNA 1: AGGGATCGATCGAAATTAATGGCGGGCAGGAGCAGGA
DNA 2: TCCTGCTCCTGCCCGCCATTAATTTCGATCGATCCCT
binding result (WOX11-MBP [1]): binds

B2: pOsEXPB7 mutant probe (dsDNA)
DNA 1: B1 DNA 1 with T17C, A18C
DNA 2: B1 DNA 2 with T20G, A21G
binding result (WOX11-MBP [1]): no binding

B3: pOsEXPB7 cold probe (dsDNA)
DNA 1: B1 DNA 1
DNA 2: B1 DNA 2
binding result (WOX11-MBP [2]): binds
